In paper doi:10.1101/2022.05.18.492403:

Molecular target: recombinant C-terminal StrepII-tagged SbtB from Synechocystis sp. PCC 6803 (ScSbtB), wildtype (Synechocystis sp. PCC 6803), P73954
Assay: crystal structure
Settings: remark: other sources report otherwise

B1: recombinant C-terminal StrepII-tagged SbtB from Synechocystis sp. PCC 6803 (ScSbtB), wildtype, P73954 1-110 (natural protein)
chain: MAKPANKLVIVTEKILLKKIAKIIDESGAKGYTVMNTGGKGSRNVRSSGQPNTSDIEANIKFEILTETREMAEEIADRVAVKYFNDYAGIIYICSAEVLYGHTFCGPEGC
  stoichiometry N: 3
